Consider three molecules from patent US20250064909A1 (MEDIMABBIO, published 2025).

One may read the Kd as the free concentration of one partner at which half of the binding sites on the other are occupied at equilibrium, for simple one-to-one binding. The term koff denotes the first-order rate constant of dissociation. As a reminder, the kon is the rate constant with which the complex forms.

For assay [1], the target named is T1, TIGIT on cells (human primary T cells, PBMC, NK cells; Promega TIGIT effector cells) (human) (UniProt Q495A1).
T1 sequence: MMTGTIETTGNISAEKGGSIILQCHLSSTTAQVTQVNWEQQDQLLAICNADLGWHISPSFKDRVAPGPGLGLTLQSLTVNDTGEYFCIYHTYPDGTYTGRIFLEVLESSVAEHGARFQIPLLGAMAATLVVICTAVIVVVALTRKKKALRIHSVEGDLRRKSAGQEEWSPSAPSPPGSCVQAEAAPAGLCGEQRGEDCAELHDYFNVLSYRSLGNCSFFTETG

Assay [2] concerns the target T2, TIGIT on cells (human primary T cells, PBMC, NK cells; Promega TIGIT effector cells) (human, UniProt Q495A1 22-244).
T2 sequence: T1 sequence
Kind of assay: cell-based or functional assay.

In assay [3] the target is T2, TIGIT on cells (human primary T cells, …). The assay can be described thus: cell-based or functional assay. This is another data set of the same source.
Assay [4] shares this target. Kind of assay: cell-based or functional assay. This is another data set of the same source.
In assay [5] the target is T3, recombinant human TIGIT (Sino Biological) (human, UniProt Q495A1 22-138).
T3 construct: Bought protein; NP_776160.2; also called human TIGIT antigen; hTIGIT
T3 sequence: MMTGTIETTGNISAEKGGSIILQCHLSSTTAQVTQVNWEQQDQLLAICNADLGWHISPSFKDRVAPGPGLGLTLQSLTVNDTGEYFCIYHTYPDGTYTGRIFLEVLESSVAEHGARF
The assay can be described thus: SPR (Biacore T200), single cycle kinetics, IgG from supernatant captured on anti-human chip, TIGIT as analyte, 1:1 fit.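 Note: measured at 25 °C in HBS-P+ with 1% BSA, four ascending TIGIT concentrations, 210 s association per step, one final 900 s dissociation.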

In assay [6] the target is T3, recombinant human TIGIT (Sino …). Kind of assay: SPR single cycle kinetics; KD divided by KD of the VH0/Vκ0 chimeric antibody.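 Note: biacore T200 SPR at 25 °C, IgG captured on anti-human chip, TIGIT analyte in four rising concentrations, 210 s association each, 900 s dissociation.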
For assay [7], the target named is T2, TIGIT on cells (human primary T cells, …). The assay can be described thus: cell-based or functional assay. This is another data set of the same source.
The target of assay [8] is T4, recombinant human TIGIT (Acrobiosystems) (human, UniProt Q495A1 22-141).
T4 construct: Bought protein; also called hTIGIT; human TIGIT antigen
T4 sequence: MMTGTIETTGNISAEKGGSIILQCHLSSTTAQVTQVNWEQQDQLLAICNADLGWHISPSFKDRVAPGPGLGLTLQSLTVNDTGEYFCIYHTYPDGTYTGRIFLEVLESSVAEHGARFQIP
Kind of assay: SPR (Biacore T200), multi-cycle kinetics, purified IgG captured on anti-human IgG CM5 chip, TIGIT as analyte, 1:1 fit. A general note: SPR reads the build-up and loss of mass on a sensor chip optically.

In assay [9] the target is T1, TIGIT on cells (human primary T cells, PBMC, NK cells; Promega TIGIT effector cells) (human). This is another data set of the same source.
The target is the same in assay [10]. The source holds these as a separate data set.

Where two headings read alike, the source gives them in different places.

On to MBSA43 control (antibody), for which, in assay [1], the EC50, NFAT reporter luminescence (TIGIT effector cells + CD155 aAPC/CHO-K1 cells; blocked ligand PVR/CD155) stood at 1.24 µg/mL.

B1: anti-TIGIT 7A6 VH3/Vk5 humanized antibody (human IgG1, kappa) (antibody, V domains shown)
VH: QVQLQESGPGLVKPSQTLSLTCTVTGYSITSDYAWNWIRQPPGKGLEWMGYISYSGSARYNPSLKSRVTISRDTSKNQFSLKLSSVTAEDTATYYCARKGYPAYFAYWGQGTLVTVSS
VL: DIQMTQSPSSLSASVGDRVSITCKASQDVSTAVAWYQQKPGQAPRLLIYSASYRYTGVPDRFSGSGSGTDFTLTISSLQPEDFATYYCQHHYSTPYTFGQGTKLEIKR
notes: also called VH3Vκ5; 7A6 VH3/Vk5-IgG1
Regarding B1, the “EC50 of the mixture with nivolumab (both antibodies at the same concentration), NFAT reporter luminescence (PD-1+TIGIT+ effector cells + PD-L1+CD155 aAPC/CHO-K1 cells)” value in [2] came out at 0.594 µg/mL; in assay [4], 0.581 µg/mL. Besides, the “EC50 of the mixture with pembrolizumab (both antibodies at the same concentration), NFAT reporter luminescence (PD-1+TIGIT+ effector cells + PD-L1+CD155 aAPC/CHO-K1 cells)” value in [2] turned out to be 0.38 µg/mL; in [3], 0.399 µg/mL. Besides, the Kd in assay [5] was 0.871 nM; in [8], 0.0867 nM. Further, the koff in assay [5] is 0.00161 s⁻¹; in assay [8] it was 0.000177 s⁻¹. Also, the values for the kon in [5] and in assay [8] were 1.85e+06 M⁻¹ s⁻¹ and 2.04e+06 M⁻¹ s⁻¹, respectively. The “Relative KD” value in [6] is 1.34. Further, in assay [7], the “EC50, NFAT reporter luminescence (TIGIT effector cells + CD155 aAPC/CHO-K1 cells; blocked ligand PVR/CD155)” value was 0.521 µg/mL.

B2: TIG1 Arcus (antibody, from another filing, V domains shown)
VH: DVQLVESGGGLVQPGGSRKLSCAASGFTFSNFGMHWVRQAPEKGLEWVAFISSGSSSIYYADTVKGRFTISRDNPKNTLFLQMTSLRSEDTAMYYCARMRLDYYAMDYWGQGTSVTVSS
VL: DVQITQSPSYLAASPGETITINCRASKSISKYLAWYQEKPGKTNKLLIYSGSTLQSGIPSRFSGSGSGTDFTLTISSLEPEDFAMYYCQQHNEYPWTFGGGTKLEIK
Take B2: the EC50 of the mixture with pembrolizumab (both antibodies at the same concentration), NFAT reporter luminescence (PD-1+TIGIT+ effector cells + PD-L1+CD155 aAPC/CHO-K1 cells) in assay [9] is 0.611 µg/mL. The EC50 of the mixture with nivolumab (both antibodies at the same concentration), NFAT reporter luminescence (PD-1+TIGIT+ effector cells + PD-L1+CD155 aAPC/CHO-K1 cells) in assay [10] was determined as 0.923 µg/mL. Further, the EC50, NFAT reporter luminescence (TIGIT effector cells + CD155 aAPC/CHO-K1 cells; blocked ligand PVR/CD155) in assay [1] came to 3.74 µg/mL.
